{
  "source": "patent US20030023032A1",
  "target": "sigma 54 (sigma^54) transcription factor from Vibrio harveyi, product of the rpoN gene (Vibrio harveyi)",
  "experiment": "cell-based or functional assay",
  "data": [
    {"substance": "LuxO D47E (\"locked\" form mimicking activated phospho-LuxO), Vibrio harveyi (from UniProt P0C5S5 1-453)", "values": [
      {"measurement": "% W.T. Lux (bioluminescence per cell at high cell density); strain JAF548, luxO D47E, wild type rpoN present (% of wild type)", "value": 0.002},
      {"measurement": "% W.T. Lux; strain BNL244, luxO D47E, rpoN::Cm^r (sigma^54 absent) (% of wild type)", "value": 77},
      {"measurement": "% W.T. Lux; strain BNL244, luxO D47E, rpoN::Cm^r, with Plac-rpoN in trans (sigma^54 restored) (% of wild type)", "value": 1.4},
      {"measurement": "Siderophore units (chromazurol S assay); strain JAF548, luxO D47E, wild type rpoN present (siderophore units)", "value": 50},
      {"measurement": "Siderophore units; strain BNL244, luxO D47E, rpoN::Cm^r (sigma^54 absent) (siderophore units)", "value": 4},
      {"measurement": "Siderophore units; strain BNL244, luxO D47E, rpoN::Cm^r, with Plac-rpoN in trans (sigma^54 restored) (siderophore units)", "value": 25}
    ]},
    {"substance": "phospho-LuxO (wild type LuxO, constitutively phosphorylated in luxN L166R strains), Vibrio harveyi (from UniProt P0C5S5 1-453)", "values": [
      {"measurement": "% W.T. Lux; strain BNL248, luxN L166R, rpoN::Cm^r (sigma^54 absent) (% of wild type)", "value": 55},
      {"measurement": "% W.T. Lux; strain BNL248, luxN L166R, rpoN::Cm^r, with Plac-rpoN in trans (sigma^54 restored) (% of wild type)", "value": 1.1},
      {"measurement": "% W.T. Lux; strain JAF549, luxN L166R, wild type rpoN present (% of wild type)", "value": 0.004}
    ]}
  ]
}
